This is an account of results in article PMC7697101.

No end group written: not given here.

The target of this assay is formyl peptide receptor 2 (Fpr2/ALX), murine (mouse (endogenous in C57BL/6 and STM mice)) (UniProt O88536).
UniProt O88536, sequence (O88536 whole entry): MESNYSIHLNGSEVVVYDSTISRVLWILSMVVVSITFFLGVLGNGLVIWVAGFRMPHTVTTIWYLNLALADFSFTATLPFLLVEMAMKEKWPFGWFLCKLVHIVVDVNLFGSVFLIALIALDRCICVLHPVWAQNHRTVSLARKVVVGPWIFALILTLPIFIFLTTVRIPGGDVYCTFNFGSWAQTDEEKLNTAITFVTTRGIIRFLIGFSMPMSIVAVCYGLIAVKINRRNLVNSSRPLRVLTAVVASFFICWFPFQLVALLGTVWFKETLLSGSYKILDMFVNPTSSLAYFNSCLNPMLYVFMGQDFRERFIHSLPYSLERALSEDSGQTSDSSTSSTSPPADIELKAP

On to Ac-AMVSEFLKQAWFIENEEQEYVQTVK [AnxA1 mimetic peptide AnxA1_(Ac2-26)], for which the increase in blood flow (cessation time) in cerebral venules of sickle cell transgenic mice given AnxA1 (Ac2-26) 4 mg/kg vs. saline, light/dye thrombosis; mitigated by co-administration of Boc2 or WRW4 amounted to 63.5%.
